Assay results reported in PMC3767169.

Target: complement C1q (human) (UniProt P02745)
Test: fluorescence polarisation

Sequence of UniProt P02745 (P02745 23-245, chain 1 of 3): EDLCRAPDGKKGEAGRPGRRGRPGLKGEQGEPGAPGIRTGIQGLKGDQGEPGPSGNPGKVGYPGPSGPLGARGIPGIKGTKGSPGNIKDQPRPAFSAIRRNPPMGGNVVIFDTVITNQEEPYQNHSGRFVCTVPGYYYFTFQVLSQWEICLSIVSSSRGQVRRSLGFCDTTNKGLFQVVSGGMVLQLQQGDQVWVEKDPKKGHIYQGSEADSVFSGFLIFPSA
Sequence of UniProt P02745 (P02746 28-253, chain 2 of 3, further chain): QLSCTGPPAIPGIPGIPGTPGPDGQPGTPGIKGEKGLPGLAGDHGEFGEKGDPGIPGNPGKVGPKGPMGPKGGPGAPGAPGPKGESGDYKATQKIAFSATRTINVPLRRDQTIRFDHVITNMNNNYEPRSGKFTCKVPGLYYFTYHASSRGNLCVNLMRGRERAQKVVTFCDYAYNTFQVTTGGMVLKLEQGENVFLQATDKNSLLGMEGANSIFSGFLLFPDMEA
Sequence of UniProt P02745 (P02747 29-245, chain 3 of 3, further chain): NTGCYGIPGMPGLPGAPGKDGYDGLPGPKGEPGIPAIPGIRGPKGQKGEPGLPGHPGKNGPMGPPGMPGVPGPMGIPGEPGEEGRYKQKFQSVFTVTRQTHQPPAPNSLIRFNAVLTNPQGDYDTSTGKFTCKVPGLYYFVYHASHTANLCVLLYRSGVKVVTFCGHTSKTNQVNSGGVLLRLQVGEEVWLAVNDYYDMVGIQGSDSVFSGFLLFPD

change in anisotropy (Δr): 0.081
Substance: modified C-reactive protein (mCRP) (from UniProt P02741 19-224) (natural protein)
